According to publication PMC3409183:

Test system: ribosomal protein L5 (TbL5) (Trypanosoma brucei)
Test: EMSA
Conditions: EMSA: 10 mM Tris-HCl pH 7.4, 150 mM KCl, 0.1 mM DTT, 0.1 mM EDTA, 0.1% NP-40, 20 min room temperature; filter binding: 10 mM Tris pH 7.4, 1 mM EDTA, 100 mM …

T. brucei 5S rRNA
Kd: 12 nM
